The target in this test is T1, rat α-CGRP (Rattus norvegicus, UniProt P01256).
T1 construct: 1-37 of rat α-CGRP (WT); purchased GenScript Corporation or Global Peptide Services (custom order); host or cells: synthetic peptide
T1 sequence (P01256 83-119 limits assumed): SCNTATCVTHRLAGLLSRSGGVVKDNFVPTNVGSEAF
As to the kind of experiment: Biacore affinity of antibody G1 and variant Fabs to rat α-CGRP. It is filed as binding. Conditions: 37° C.; Fab; screening mode unless underlined. The method, then: Biacore assay for affinity determination. […] All Biacore assays were conducted in HBS-EP running buffer (10 mM HEPES pH 7.4, 150 mM NaCl, 3 mM EDTA, 0.005% v/v polysorbate P20). CGRP surfaces were prepared by diluting the N-biotinylated CGRP to a concentration of less than 0.001 mg/mL into HBS-EP buffer and injecting it across the SA sensor chip using variable contact times. Low capacity surfaces, corresponding to capture levels <50 response units (RU) were used for high-resolution kinetic studies, whereas high capacity surfaces (about 800 RU of captured CGRP) were used for concentration studies, screening, and solution affinity determinations. […] Samples were typically injected for 1 minute at 100 μL/min and dissociation times of at least 10 minutes were allowed. After each binding cycle, surfaces were regenerated with 25 mM NaOH in 25% v/v ethanol, which was tolerated over hundreds of cycles. […]
High-resolution analysis of binding interactions with extremely slow offrates. […] The association rate constant (kon) was determined by injecting a 2-fold titration series (in duplicate) spanning 550 nM-1 nM for 30 sec at 100 uL/min and allowing only a 30 sec dissociation phase. The dissociation rate constant (koff) was determined by injecting three concentrations (high, medium, and low) of the same titration series in duplicate for 30 sec and allowing a 2-hour dissociation phase. […]
Background: SPR reads the build-up and loss of mass on a sensor chip optically.

B1: M84: G1 variant: L1 R28N T30V; L2 A51H L56T; H2 E54N A57N; HC-FW3 L99T A100V (antibody, V domains shown)
VH: EVQLVESGGGLVQPGGSLRLSCAASGFTFSNYWISWVRQAPGKGLEWVAEIRSNSDNSATHYAEAVKGRFTISRDNAKNSLYLQMNSLRAEDTAVYYCTVYFDYGLAIQNYWGQGTLVTVSS
VL: EIVLTQSPATLSLSPGERATLSCKASKNVVTYVSWYQQKPGQAPRLLIYGHSNRYTGIPARFSGSGSGTDFTLTISSLEPEDFAVYYCSQSYNYPYTFGQGTKLEIK
Turning to B1, the α-rat koff was determined as 0.0176 s⁻¹.
